Values belong to the binder of their own block, whether it stands above or below them.
How the values were obtained:
[1] = target: T1, human CD73 antigen protein (ACRO Biosystems, Catalog No. CD3-H52H7) (human, UniProt P21589 27-547); assay: SPR BIAcore 8k, CD73 captured as ligand, 900698 added first (competitor), then 900725
T1 construct: Bought protein; also called Human CD73 dimer protein; human CD73 protein
T1 sequence (looked up): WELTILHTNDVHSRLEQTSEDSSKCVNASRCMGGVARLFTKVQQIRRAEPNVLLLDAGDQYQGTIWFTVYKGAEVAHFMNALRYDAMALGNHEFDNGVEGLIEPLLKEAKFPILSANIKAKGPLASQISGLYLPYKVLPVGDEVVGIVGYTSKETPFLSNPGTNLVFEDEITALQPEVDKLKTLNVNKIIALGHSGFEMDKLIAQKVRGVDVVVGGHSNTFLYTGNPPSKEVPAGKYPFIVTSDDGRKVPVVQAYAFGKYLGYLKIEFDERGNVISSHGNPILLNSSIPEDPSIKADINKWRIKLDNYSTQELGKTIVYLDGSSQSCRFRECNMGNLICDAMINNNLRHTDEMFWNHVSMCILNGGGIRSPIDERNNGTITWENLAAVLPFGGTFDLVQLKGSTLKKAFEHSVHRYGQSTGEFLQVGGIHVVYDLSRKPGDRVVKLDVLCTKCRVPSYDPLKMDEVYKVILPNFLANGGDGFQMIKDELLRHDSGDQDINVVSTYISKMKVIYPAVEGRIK
Text: (§1) First, the human CD73 antigen protein (manufacturer: ACRO Biosystems, Catalog No. CD3-H52H7) was captured as a ligand using BIAcore 8k, and then the antibodies were used as analytes.

[2] = target: T1, human CD73 antigen protein (ACRO …); assay: SPR BIAcore 8k, CD73 captured as ligand, analyte 1 buffer, analyte 2 900725
Text: as §1

[3] = target: T1, human CD73 antigen protein (ACRO …); assay: SPR BIAcore 8k, CD73 captured as ligand, 900725 added first (competitor), then 900698
Text: as §1

[4] = target: T1, human CD73 antigen protein (ACRO …); assay: SPR BIAcore 8k, CD73 captured as ligand, analyte 1 buffer, analyte 2 900698
Text: as §1

Kd [1]: 4.16 nM
koff [1]: 0.00591 s⁻¹
kon [1]: 1.42e+06 M⁻¹ s⁻¹
Kd [2]: 3.01 nM
koff [2]: 0.00452 s⁻¹
kon [2]: 1.5e+06 M⁻¹ s⁻¹
B1: 900725 (antibody, human IgG1, kappa, L234A L235A, V domains shown)
VH: QVQLVQSGAEVKKPGASVKLSCKASGYTFTSYWIHWVRQAPGQGLEWIGMIHPNSGSTYYNEKFKGRATLTVDKSTSTAYMELSSLRSEDTAVYYCARYYGSDYEWYFDVWGQGTTVTVSS
VL: DIQMTQSPSSMSASVGDRVTITCKASQNVRTAVVWYQQKPGKAPKALIYLASNRHTGVPDRFSGSGSGTDFTLTISSLQPEDFATYFCLQHWNYPYTFGQGTKLEIKR
notes: also called component of the anti-CD73 cocktail antibody

Kd [3]: 12.6 nM
koff [3]: 0.0017 s⁻¹
kon [3]: 135000 M⁻¹ s⁻¹
Kd [4]: 7.3 nM
koff [4]: 0.00114 s⁻¹
kon [4]: 156000 M⁻¹ s⁻¹
B2: 900698 (antibody, human IgG1, kappa, L234A L235A, V domains shown)
VH: QVQLVESGGGLVKPGGSLRLSCAASGFTFSKYAMSWIRQAPGKGLEWVAEISSGGGYINYADSVKGRFTISRDNAKNSLYLQMNSLRAEDTAVYYCARAIYYYGSSYNYYAMDYWGQGTTVTVSS
VL: DIQMTQSPSSLSASVGDRVTITCRASQDVGTAEAWYQQKPGKAPKLLIYWASTRHTGVPSRFSGSGSGTDFTLTISSLQPEDFATYYCQQYSSYPLTFGQGTKLEIKR
notes: as for B1

— patent US20260217849A1 (SHANGHAI HUAOTA BIOPHARMACEUTICAL, published 2026)
